Source: publication PMC3864903

What was measured:
[1] = molecular target: rNav1.4 voltage-gated sodium channel α subunit (rat) (UniProt P15390)
[2] = molecular target: rNav1.4 voltage-gated sodium channel α subunit (rat) (UniProt P15390); remark: listed apart in the source
[3] = molecular target: rNav1.4 voltage-gated sodium channel α subunit (rat) (UniProt P15390); remark: listed apart in the source
[4] = molecular target: rNav1.4 voltage-gated sodium channel α subunit (rat) (UniProt P15390); remark: listed apart in the source

rNavβ1 point mutant G33M (from UniProt Q00954 19-218) (natural protein)
Activation V1/2 of sodium currents, two electrode voltage clamp, co-expression in oocytes [1]: -32.5 mV
Inactivation V1/2 (steady-state inactivation) [1]: -56 mV
Inactivation rate τ (inac) of the peak current at −20 mV [2]: 0.46 ms
Recovery from inactivation τ (slow) [2]: 760 ms

rNavβ1 point mutant Y32A (from UniProt Q00954 19-218) (natural protein)
Activation V1/2 of sodium currents, two electrode voltage clamp, co-expression in oocytes [1]: -34 mV
Inactivation V1/2 (steady-state inactivation) [1]: -56 mV
Inactivation rate τ (inac) of the peak current at −20 mV [2]: 0.48 ms
Recovery from inactivation τ (slow) [2]: 743 ms

rNavβ1 voltage-gated sodium channel accessory subunit, wild type (from UniProt Q00954 19-218) (natural protein)
Activation V1/2 of sodium currents, two electrode voltage clamp, co-expression in oocytes [1]: -33.4 mV
Inactivation V1/2 (steady-state inactivation) [1]: -61.8 mV
Inactivation rate τ (inac) of the peak current at −20 mV [2]: 0.6 ms
Recovery from inactivation F (fast) [2]: 0.93
Recovery from inactivation τ (fast) [2]: 1.7 ms
Recovery from inactivation τ (slow) [2]: 236 ms
Current recovery from inactivation after a recovery interval of 1 ms [3]: 50%

rNavβ1 point mutant C43A (from UniProt Q00954 19-218) (natural protein)
Activation V1/2 of sodium currents, two electrode voltage clamp, co-expression in oocytes [1]: -29 mV
Inactivation V1/2 (steady-state inactivation) [1]: -59.1 mV
Recovery from inactivation F (fast) [2]: 0.89
Recovery from inactivation τ (fast) [2]: 2.7 ms
Recovery from inactivation τ (slow) [2]: 636 ms
Slowing of the current recovery after 1 ms, against WT β1 [3]: 95%
Use-dependent current decline on repetitive depolarisations at 1 Hz (10% after the second pulse, cumulative rundown 20%) [4]: 20%
Use-dependent current rundown on repetitive depolarisations at 5 Hz (data not shown) [4]: 20%

rNavβ1 point mutant R89A (from UniProt Q00954 19-218) (natural protein)
Activation V1/2 of sodium currents, two electrode voltage clamp, co-expression in oocytes [1]: -33 mV
Inactivation V1/2 (steady-state inactivation) [1]: -62.6 mV
Inactivation rate τ (inac) of the peak current at −20 mV [2]: 2.6 ms
Recovery from inactivation F (fast) [2]: 0.92
Recovery from inactivation τ (fast) [2]: 2.3 ms
Recovery from inactivation τ (slow) [2]: 376 ms
Slowing of the current recovery after 1 ms, against WT β1 [3]: 90%
